According to PMC10636607:
Read-outs that look alike come from different tables or passages of the source.

Legend:
Assay in all cases: BLI
SARS-CoV-2 spike = biological target: SARS-CoV-2 spike
[1] = biological target: HCV E2 envelope glycoprotein
[2] = biological target: HC84.26.5D Fab VH G50R (human)
[3] = biological target: biotinylated SARS-CoV-2 fusion peptide
influenza HA = biological target: influenza HA

HC84.26.5D Fab VH G50R (human), sequence (heavy, as listed by the source, chain 1 of 2): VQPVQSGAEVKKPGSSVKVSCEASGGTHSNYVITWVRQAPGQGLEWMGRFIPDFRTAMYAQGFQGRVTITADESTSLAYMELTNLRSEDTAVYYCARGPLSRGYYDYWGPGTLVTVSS
HC84.26.5D Fab VH G50R (human), sequence (light, as listed by the source, chain 2 of 2): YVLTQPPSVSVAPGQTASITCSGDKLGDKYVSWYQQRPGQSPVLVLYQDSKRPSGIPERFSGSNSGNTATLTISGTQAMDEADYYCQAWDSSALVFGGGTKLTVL

P008_60 (WT) H:S52R was tested, and the ratio to parent (SARS-CoV-2 spike) was greater than 100.

With HC33.8 (WT) H:S52Y the ratio to parent [1] was greater than 100.

Substance “HCV (isolate H77) E2 domain protein (domain or fragment)” has a fold change in KD against the wild-type Fab [2] of 6 fold.

With COV44-62 Fab (WT) H:R50W the ratio to parent [3] was greater than 100.

COVOX-316 (WT) H:W50R was tested, and the ratio to parent (SARS-CoV-2 spike) was greater than 100.

Work on HCV1 (WT) H:W52S yielded a ratio to parent [1] greater than 100.

8F8 (WT) H:S31R showed a ratio to parent (influenza HA) greater than 100.

For H1244 (WT) H:S32Y, the ratio to parent (influenza HA) was greater than 100.

In the case of Ab326 (WT) H:V50F, the ratio to parent (SARS-CoV-2 spike; read off a plot) is reported as 9.4.
